According to PMC4676722 (PLoS Genetics, 2015):
Where no end group is shown, it is not given here. [ ]: non-standard residue; d: D form. pY = N[C@@H](Cc1ccc(OP(=O)(O)O)cc1)C(=O)O

Biological target: T1, recombinant ovine wild type SOCS2 (Suppressor of Cytokine Signaling 2) (sheep (ovine), UniProt A0ACI6S499 1-198)
T1 construct: also called rOvSOCS2 WT; SOCS2-WT
T1 sequence (looked up): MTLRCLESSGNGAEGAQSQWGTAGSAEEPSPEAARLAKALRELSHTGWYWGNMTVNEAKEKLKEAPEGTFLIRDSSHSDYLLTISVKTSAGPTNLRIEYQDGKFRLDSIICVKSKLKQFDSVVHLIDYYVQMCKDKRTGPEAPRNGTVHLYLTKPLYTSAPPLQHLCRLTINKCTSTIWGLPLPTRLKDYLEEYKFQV
Assay: SPR; BIAcore T200, single-cycle kinetics; biotinylated GHR pY-peptide immobilised on SA chip (75 RU), scramble peptide as reference; five injections of SOCS2 protein 100 nM-8.1 μM, 120 s each; 1:1 Langmuir fit; 25°C, HBS-EP buffer
Conditions: both partners purified

Binder: PVPD[pY]TSIHIV (also: biotinylated, site not given here) [phosphorylated peptide from the growth hormone receptor (pY595 GHR), biotinylated]
- koff: 0.0016 s⁻¹
- kon: 828 M⁻¹ s⁻¹
